Reference: patent US20240317871A1 (IMMUNOMIC THERAPEUTICS, published 2024)
Numbering of substitutions follows the chain as printed.

T1: murine HVEM (murine, UniProt Q80WM9 39-206, limits assumed)
T1 construct: also called Mouse
T1 sequence (looked up): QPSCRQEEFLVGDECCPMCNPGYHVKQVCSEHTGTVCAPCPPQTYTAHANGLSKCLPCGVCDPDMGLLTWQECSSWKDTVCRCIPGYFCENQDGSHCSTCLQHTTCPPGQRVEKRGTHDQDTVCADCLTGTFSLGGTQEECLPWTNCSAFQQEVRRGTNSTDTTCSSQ

T2: human HVEM (human, UniProt Q92956 39-202, limits assumed)
T2 sequence (looked up): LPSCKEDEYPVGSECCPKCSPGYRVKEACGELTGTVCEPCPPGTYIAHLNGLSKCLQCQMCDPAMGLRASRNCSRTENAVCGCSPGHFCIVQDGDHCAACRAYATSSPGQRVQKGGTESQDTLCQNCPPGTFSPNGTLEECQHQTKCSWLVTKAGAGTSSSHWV

T3: cynomolgus monkey HVEM (cynomolgus monkey, UniProt A0A2K5W0R1 39-203)
T3 sequence: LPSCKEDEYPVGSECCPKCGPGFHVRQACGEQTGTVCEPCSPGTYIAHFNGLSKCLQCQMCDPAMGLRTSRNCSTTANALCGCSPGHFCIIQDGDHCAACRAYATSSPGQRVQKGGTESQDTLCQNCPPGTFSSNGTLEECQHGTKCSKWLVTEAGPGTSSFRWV

T4: His-tagged human HVEM (human, UniProt Q92956 39-202, limits assumed)
T4 construct: Analyte of the BLI assay, 200 nM in PBS; not shown: His tag
T4 sequence (looked up): T2 sequence (looked up)

B1: Ab_020 (H5S14-22A20A) (antibody, V domains shown)
VH: EVQLQQSGPELVKPGASVKMSCKASGYTFTSYVMHWVKQKPGQGLEWIGYINPYNDGTKYNEKFKGKATLTSDKSSSTAYMELSSLTSEDSAVYYCARGIITTVIEPILYAMDYWGQGTSVTVSS
VL: NIVLTQSPASLAVSLGQRATISCRASESVDSYGNSFMHWYQQKPGQPPKLLIYLASNLESGVPARFSGSGSRTDFTLTIDPVEADDAATYYCQQNNEDPYTFGGGTKLEIK
notes: also called Ab_20
B2: Ab_021 (H5S14-29A20A) (antibody, V domains shown)
VH: B1 VH with I105V
VL: B1 VL
notes: also called Ab_21
B3: Ab_038 (H5S15-19A18A) (antibody, V domains shown)
VH: QVQLKESGPGLVAPSQSLSITCTVSGFSLTGYGVNWVRQPPGKGLEWLGMIWGDGGTDYNSALKSRLSISKDNSKSQVFLKMNSLQTDDTARYYCARDNYHTVVNGDYWGQGTSVTVSS
VL: ENVLTQSPAIMSASPGEKVTMTCRASSSVSSSYLHWYQQKSGASPKLWIYSTSNLASGVPARFSGSGSGTSYSLTISSVEAEDAATYYCQQYSGYPLTFGGGTKLEIK
notes: also called Ab_38
B4: Ab_007 (H5S14-6A6A) (antibody, V domains shown)
VH: EVKLVESGGGLVQPGGSLRLSCATSGFTFTDYYMSWVRQTPGKALEWLGFIRNQANAYTTEYSVSVKGRFTISRDNSQSILYLQMNTLRVEDSATYYCARVPDYWGQGTTLTVSS
VL: DIQMTQSPASQSASLGESVTITCLASQTIGTWLAWYQQKPGKSPQLLIYAATSLADGVPSRFSGSGSGTKFSFKISSLQAEDFVSYYCQQLHSTPYTFGGGTKLEIK
notes: also called Ab_7
B5: Ab_002 (H5S14-2A2A) (antibody, V domains shown)
VH: QVQLQQPGAELVKPGTSVKMSCKASGYTFTSYWMHWVKQRPGQGLEWIGDIYPGSDSTNYNEKFKSKATLTVDTSSSTAYMQLSSLTSEDSAVYYCARSGYYGSYLDYWGQGTTLTVSS
VL: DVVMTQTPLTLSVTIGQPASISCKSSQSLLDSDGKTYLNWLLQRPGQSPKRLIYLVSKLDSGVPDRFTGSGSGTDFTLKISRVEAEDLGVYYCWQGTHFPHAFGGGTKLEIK
notes: also called Ab_2
B6: Ab_014 (H5S14-15A12A) (antibody, V domains shown)
VH: QVQLKQSGPGLVQPSQSLSITCTVSGFSLTSYGVHWVRQSPGKGLEWLGVIWSGGSTDYNAAFICRLSISKDSSKSQVFFKMNSLQADDTAMYYCARNLGGSWVDYWGQGTSVTVSS
VL: ETTVTQSPASLSVATGEKVTIRCITSTDIDDDMNWYQQKPGEPPKLLISEGNTLRPGVPSRFSSSGYGTDFVFTIENTLSEDVADYYCLQSDNMPYTFGGGTKLEIK
notes: also called Ab_14
B7: Ab_037 (H5S15-13A15A) (antibody, V domains shown)
VH: QVQLKQSGPGLVQPSQSLSITCTVSGFSLTSYGVHWVRQSPGKGLEWLGVIWRGGSTDYNAAFMSRLSITKDNSKSQVFFKMNSLQADDTAIYYCAKTGFAYWGQGTLVTVSA
VL: QIVLTQSPAIMSASPGEKVTMTCSASSSVSYMHWYQQKSGTSPKRWIYDTSKLASGVPARFSGSGSGTSYSLTISSMEAEDAATYYCQQWSSNPLTFGAGTKLELK
notes: also called Ab_37
B8: Ab_024 (H5S15-1A1A) (antibody, V domains shown)
VH: EVQLQQSGAELVKPGASVKLSCTASGFNIKDTYMHWVKQRPEQGLAWIGRIAPANGYTKYDPKFQGKATITTDTSSNTAYLHLSRLTSEDTAVYYCANYFGNTYDWFAFWGQGTLVTVSA
VL: ENVLTQSPAIMSASPGEKVTMTCSAGSSVSYMHWYQQKSSTSPKLWIYDTSKLPSGVPGRFSGSGSGNSYSLTISSMEAEDVATYYCFQGSGFPLTFGSGTKLEIK
notes: also called Ab_24
B9: Ab_016 (H5S14-17A15A) (antibody, V domains shown)
VH: QVQLQQSGAELVRPGTSVKMSCKAAGYTFTNYWIGWVKQRPGHGLEWIGDIYPGGGYTNYNEKFKGKATLTADTSSSTAYMQLSSLTSEDSAIYYCARNGNSLDYWGQGTTLTVSS
VL: SIVMTQTPKFLLVSAGDRVTITCKASQSVSNDVAWYQQKPGQSPKLLIYYESNRYTGVPDRFTGSGYGTDFTFTISTVQAEDLAVYFCQQDYSSPWTFGGGTKLEIK
notes: also called Ab_16
B10: Ab_017 (H5S14-18A16A) (antibody, V domains shown)
VH: EVQLVETGGGLVQPKGSLKLSCAASGFTFNTNAMNWVRQAPGKGLEWVARIRSKSNNYATYYADSVKDRFTISRDDSQSMLYLQMNNLKTEDTAMYYCVREGGYGNYPYFDYWGQGTTLTVSS
VL: B9 VL with E51A
notes: also called Ab_17
B11: Ab_023 (H5S14-27A23A) (antibody, V domains shown)
VH: EVKLDETGGGLVQPGRPMKLSCVASGFTFSDYWMNWVRQSPEKGLEWVAQIRNKPYNYETYYSDSVKGRFTISRDDSKSSVYLQMNNLRAEDMGIYYCTWGNYWGQGTTLTVSS
VL: DIKMTQSPSSMYASLGERVTITCKASQDINSYLSWFQQKPGKSPKTLIYRANRLVDGVPSRFSGSGSGQDYSLTISSLEYEDMGIYYCLQYDEFPWTFGGGTKLEIK
notes: also called Ab_23
B12: Ab_039 (H5S15-21A19A) (antibody, V domains shown)
VH: QIQLVQSGPDLKKPGETVKISCKASGYTFTNYGMNWVKQAPGKDLKWMGWINTYTGEPTYADDFKGRFAFSLETSASTAYLQINNLKNDDTATYFCARSINYDSDEKWGQGTSVTVSS
VL: QIVLTQSPAIMSASLGERVTLTCTASSSVSSSYLHWYQQKPGSSPKLWIYDTSNLASGVPARFSGSGSGTSYSLTISSMEAEDAATYYCHQYHRSQWTFGGGTKLEIK
notes: also called Ab_39
B13: Ab_040 (H5S15-23A21A) (antibody, V domains shown)
VH: EVQLQQSGTVLARPGASVKMSCKASGYTFTSFWMHWVKQRPGQGLEWIGAISPGNSETTYNQKFTGKAKLTAVTSTSTAYMELSSLTNEDSAVYYCTKIYYDYDDGYWGQGTTLTVSS
VL: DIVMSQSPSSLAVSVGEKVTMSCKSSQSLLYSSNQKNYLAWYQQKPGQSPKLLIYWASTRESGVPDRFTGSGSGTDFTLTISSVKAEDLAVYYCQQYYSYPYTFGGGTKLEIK
notes: also called Ab_40
B14: Ab_032 (H5S15-7A8A) (antibody, V domains shown)
VH: QIQLVQSGPELKKPGETVKISCKASGYTFTNYGMNWVKQAPGKGLKWVGWINTYTGEPTYAEDFKGRFAFSLETSASTAYLQINNLKNEDMATYFCARSFYGSEAYWGQGTLVTVSA
VL: QIVLTQSPAIMSASLGEEITLTCSASSSVSFMHWYQQKSGTSPKLLIYSTSNLASGVPSRFSGSGSGTFYSLTISSVEAEDAADYYCHQWSSYLWTFGGGAKLEIK
notes: also called Ab_32
B15: Ab_033 (H5S15-7B8A) (antibody, V domains shown)
VH: B14 VH with E62D
VL: B14 VL
notes: also called Ab_33
B16: Ab_015 (H5S14-16A13A) (antibody, V domains shown)
VH: EVQLVESGGGLVKPGGSLKLSCAASGFTFSDYYMYWVRQTPEKRLEWVATISDGGSYTYYPDSVKGRFTISRDNAKNNLYLQMSSLKSEDTAMYYCARDGNYYAMDYWGQGTSVTVSS
VL: DVLMTQTPLSLPVSLGDQASISCRSSQSIVHSNGNTYLEWYLQKPGQSPKLLIYKVSNRFSGVPDRFSGSGSGTDFTLKISRVEAEDLGVYYCFQGSHVPWTFGGGTKLEIK
notes: also called Ab_15
B17: Ab_059 (H5S19-3B10B) (antibody, V domains shown)
VH: QIQLVQSGPELKKPGETVKISCKASGYTFTNFGVNWVKQAPGKGLKWMGWINTYTGEPTYADDFKGRFAFSLETSASTAYLRINNLKNEDTATYFCARSFYKNYAFWGQGTILTVSS
VL: QIVLTQSPAIMSASPGEKVTLTCSASSSVDSSYLFWYQQKPGSSPKLWIYSTSNLASGVPARFSGSGSGTSYSLTISSMEAEDAASYFCHQWSSYPWTFGGGTILEI
notes: also called Ab_59
B18: Ab_044 (H5S15-30A26A) (antibody, V domains shown)
VH: QVQLQQPGAELVKPGAPVKLSCKASGYTFTSYWMNWVKQRPGRGLEWIGRIDPSDSETHYNQKFKDKATLTVDKSSSTAYIQLSSLTSEDSAVYYCAREYYGNHFDYWGQGTTLTVSS
VL: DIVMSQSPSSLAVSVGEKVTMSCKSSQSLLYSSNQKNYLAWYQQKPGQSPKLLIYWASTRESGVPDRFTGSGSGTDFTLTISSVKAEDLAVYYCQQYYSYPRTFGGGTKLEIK
notes: also called Ab_44
B19: Ab_022 (H5S14-23A21A) (antibody, V domains shown)
VH: LVKTGASVKISCKASGYSFTGYYMHWVKQSHGKSLEWIGYISCYNGATSYNQKFKGKATFTVDTSSSTAYMQFNSLTSEDSAVYYCARTYYYGSSYGAMDYWGQGTSVTVSS
VL: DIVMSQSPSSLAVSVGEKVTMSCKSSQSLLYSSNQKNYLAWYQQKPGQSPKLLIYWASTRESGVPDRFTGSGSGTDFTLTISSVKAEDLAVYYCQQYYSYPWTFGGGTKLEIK
notes: also called Ab_22

Each binder was assayed against T1, murine HVEM (assay: ELISA).
With B1 the ELISA signal was 0.043.
Binder B2 has an ELISA signal of 0.042.
B3 was tested, and the ELISA signal was 0.043.
B4 gave an ELISA signal of 0.042.
In the case of B5, the ELISA signal is reported as 0.043.
B6 was tested, and the ELISA signal was 0.049.
B7 showed an ELISA signal of 0.043.
Work on B8 yielded an ELISA signal of 0.044.
B9 was tested, and the ELISA signal was 0.042.
B10 gave an ELISA signal of 0.044.
B11 gave an ELISA signal of 0.042.
B12 was tested, and the ELISA signal was 0.042.
Binder B13 has an ELISA signal of 0.05.
In the case of B14, the ELISA signal is reported as 0.045.
With B15 the ELISA signal was 0.043.
B16 was tested, and the ELISA signal was 0.042.
With B17 the ELISA signal was 0.043.

These binders were tested against T2, human HVEM (assay: ELISA).
B1 gave an ELISA signal of 0.049.
B2 showed an ELISA signal of 0.046.
In the case of B3, the ELISA signal is reported as 0.049.
In the case of B4, the ELISA signal is reported as 2.56.
Binder B5 has an ELISA signal of 2.8.
For B6, the ELISA signal was 0.05.
In the case of B7, the ELISA signal is reported as 0.059.
Binder B8 has an ELISA signal of 0.048.
B9 was tested, and the ELISA signal was 0.047.
B10 was tested, and the ELISA signal was 0.051.
Work on B11 yielded an ELISA signal of 0.045.
B12 was tested, and the ELISA signal was 2.87.
B13 showed an ELISA signal of 0.069.
With B14 the ELISA signal was 3.04.
With B15 the ELISA signal was 3.1.
B16 showed an ELISA signal of 0.045.
B17 was tested, and the ELISA signal was 0.462.
For B18, the ELISA signal was 2.87.
B19 showed an ELISA signal of 0.157.

The binders below were run against T3, cynomolgus monkey HVEM (assay: ELISA).
With B1 the ELISA signal was 0.064.
In the case of B2, the ELISA signal is reported as 0.061.
B3 showed an ELISA signal of 0.06.
For B4, the ELISA signal was 0.739.
With B5 the ELISA signal was 1.98.
In the case of B6, the ELISA signal is reported as 0.064.
Work on B7 yielded an ELISA signal of 0.06.
B8 was tested, and the ELISA signal was 0.063.
In the case of B9, the ELISA signal is reported as 0.061.
Work on B10 yielded an ELISA signal of 0.06.
B11 was tested, and the ELISA signal was 0.057.
In the case of B12, the ELISA signal is reported as 3.03.
B13 gave an ELISA signal of 0.098.
With B14 the ELISA signal was 2.87.
Work on B15 yielded an ELISA signal of 3.02.
With B16 the ELISA signal was 0.058.
With B19 the ELISA signal was 0.165.

The binders below were run against T4, His-tagged human HVEM (assay: BLI OctetRed96, mAb captured, 200 nM His-HVEM).
Experimental: Binding of antibodies to HVEM may also be determined by bio-layer interferometry (BLI) on an OctetRed96@ system (Sartorius). (See http://www.fortebio.com/bli_technology.html for general description of a BLI assay.) For this experiment, murine anti-human HVEM antibodies were captured from culture supernatant using anti-mouse IgG Fc capture and immobilized to dip and read biosensors. Sensors were then dipped into a solution of 200 nM His-tagged human HVEM in phosphate-buffered saline (PBS). Probes were dipped into PBS assay buffer and the dissociation rate (koff) was measured. The association rate (kₒₙ) and affinity (KD) were determined by curve fitting analysis.
With B18 the Kd was 1.97 nM, the koff was 0.00605 s⁻¹ and the kon was 3.08e+06 M⁻¹ s⁻¹.
